Test results as given in publication PMC3592866.
Values joined by “and” are separate entries in the source; they are usually repeats but may differ in a detail not shown here. Identical values can stand only once. Each block holds one substance with its values, some of them ahead of it.

Legend:
[1] = biological target: pXqua MltBP-QUA1-C59S/R67A/E72G fusion protein (Xenopus laevis); experiment: SEC; analytical Superdex-200 PC 3.2/30 of MltBP-QUA1 fusion proteins; 20 mM Tris-HCl pH 7.9, 150 mM NaCl, 0.05% sodium azide; 50 uL at 1 mg/mL loaded; apparent aggregation numbers from calibration; monomer to dimer
[2] = biological target: wild type pXqua MltBP-QUA1 fusion protein (Xenopus laevis); experiment: as above
[3] = biological target: pXqua MltBP-QUA1-C59S fusion protein (Xenopus laevis); experiment: as above
[4] = biological target: pXqua MltBP-QUA1-C59S/R67E/E72R fusion protein (Xenopus laevis); experiment: as above
[5] = biological target: pXqua MltBP-QUA1-C59S/R67A fusion protein (Xenopus laevis); experiment: as above
[6] = biological target: pXqua QUA1-C59S (protease-liberated peptide) (Xenopus laevis); experiment: AUC; sedimentation equilibrium of released QUA1-C59S, global single species fits; monomer to dimer

fraction eluting in the dimer peak [1]: 0.33
Substance: pXqua MltBP-QUA1-C59S/R67A/E72G fusion protein (domain or fragment)

stoichiometry N [2]: 4 and 2
Substance: wild type pXqua MltBP-QUA1 fusion protein (domain or fragment)

AAN (apparent aggregation number) [3]: 2.7
stoichiometry N [3]: 2
Substance: pXqua MltBP-QUA1-C59S fusion protein (domain or fragment)

AAN (apparent aggregation number) [4]: 2.1
percent of species in the dimeric state [4]: 70%
Substance: pXqua MltBP-QUA1-C59S/R67E/E72R fusion protein (domain or fragment)

AAN (apparent aggregation number) [5]: 1.7
percent of species in the dimeric state [5]: 40%
Substance: pXqua MltBP-QUA1-C59S/R67A fusion protein (domain or fragment)

stoichiometry N [6]: 2
Substance: pXqua QUA1-C59S (protease-liberated peptide) (domain or fragment)
